Measured values published in patent publication US20210000909A1.

Target: PDZ1/2 domain (UniProt P78352)
Sequence (P78352 61-249 limits assumed): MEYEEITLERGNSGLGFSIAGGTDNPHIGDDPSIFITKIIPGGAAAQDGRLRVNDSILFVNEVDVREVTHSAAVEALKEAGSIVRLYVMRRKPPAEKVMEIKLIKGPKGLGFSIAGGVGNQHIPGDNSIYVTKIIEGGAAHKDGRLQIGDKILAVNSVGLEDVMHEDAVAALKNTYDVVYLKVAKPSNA

## control chimeric peptide NA-1
  Kd: 75.3 nM
